Experimental data as given in article PMC5629633.

System: NC(=O)CC[C@H](N)C(=O)O
Test: purified protein
Conditions: pH 8.0, 30 °C, 11 mM MgCl2, co-substrate ATP

## Cj1418 (L-glutamine kinase) (Campylobacter jejuni subsp. jejuni NCTC 11168 = ATCC 700819)
  Km: 640 ± 60 µM
